Experimental data reported in paper PMC2704239.

T1: myc-tagged Tdrd2, Q80VL1
T1 chain: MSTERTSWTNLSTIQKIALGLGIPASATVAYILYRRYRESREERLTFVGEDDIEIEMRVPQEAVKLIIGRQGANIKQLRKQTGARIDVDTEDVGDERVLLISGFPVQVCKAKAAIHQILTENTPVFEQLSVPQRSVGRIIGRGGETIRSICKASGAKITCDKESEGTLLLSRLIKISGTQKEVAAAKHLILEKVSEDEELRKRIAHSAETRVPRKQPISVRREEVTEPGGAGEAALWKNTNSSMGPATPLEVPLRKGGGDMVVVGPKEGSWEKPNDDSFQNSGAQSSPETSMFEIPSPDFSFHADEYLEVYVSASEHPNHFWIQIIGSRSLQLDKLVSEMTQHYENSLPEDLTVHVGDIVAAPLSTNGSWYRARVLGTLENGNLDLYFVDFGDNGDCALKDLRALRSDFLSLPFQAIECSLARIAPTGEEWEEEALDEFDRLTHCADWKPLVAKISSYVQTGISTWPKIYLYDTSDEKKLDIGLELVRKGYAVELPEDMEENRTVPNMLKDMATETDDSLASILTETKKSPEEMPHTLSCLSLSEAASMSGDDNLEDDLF


Key:
Assay in all cases: co-IP
[1] = biological target: T1, myc-tagged Tdrd2, Q80VL1; conditions: remark: other sources report otherwise
[2] = biological target: FLAG-tagged Mili region containing the PAZ, Mid, and Piwi domains (mouse)
[3] = biological target: FLAG-tagged Mili N-terminal domain (mouse)

fold weaker interaction than with Tdrd1 [1] [fold]	binding as percent of the wildtype level [2] [%]	co-IP of Tdrd1 as percent of full-length Mili [3] [%]	Binder
20			FLAG-tagged Mili, Q8CDG1 1-971 (natural protein) MDPVRPLFRGPTPVHPSQCVRMPGCWPQAPRPLEPAWGRAGPAGRGLVFRKPEDSSPPLQPVQKDSVGLVSMFRGMGLDTAFRPPSKREVPPLGRGVLGRGLSANMVRKDREEPRSSLPDPSVLAAGDSKLAEASVGWSRMLGRGSSEVSLLPLGRAASSIGRGMDKPPSAFGLTARDPPRLPQPPALSPTSLHSADPPPVLTMERKEKELLVKQGSKGTPQSLGLNLIKIQCHNEAVYQYHVTFSPSVECKSMRFGMLKDHQSVTGNVTAFDGSILYLPVKLQQVVELKSQRKTDDAEISIKIQLTKILEPCSDLCIPFYNVVFRRVMKLLDMKLVGRNFYDPTSAMVLQQHRLQIWPGYAASIRRTDGGLFLLADVSHKVIRNDSVLDVMHAIYQQNKEHFQDECSKLLVGSIVITRYNNRTYRIDDVDWNKTPKDSFVMSDGKEITFLEYYSKNYGITVKEDDQPLLIHRPSERQNNHGMLLKGEILLLPELSFMTGIPEKMKKDFRAMKDLTQQINLSPKQHHGALECLLQRISQNETASNELTRWGLSLHKDVHKIEGRLLPMERINLRNTSFVTSEDLNWVKEVTRDASILTIPMHFWALFYPKRAMDQARELVNMLEKIAGPIGMRISPPAWVELKDDRIETYIRTIQSLLGVEGKIQMVVCIIMGTRDDLYGAIKKLCCVQSPVPSQVINVRTIGQPTRLRSVAQKILLQMNCKLGGELWGVDIPLKQLMVIGMDVYHDPSRGMRSVVGFVASINLTLTKWYSRVVFQMPHQEIVDSLKLCLVGSLKKYYEVNHCLPEKIVVYRDGVSDGQLKTVANYEIPQLQKCFEAFDNYHPKMVVFVVQKKISTNLYLAAPDHFVTPSPGTVVDHTITSCEWVDFYLLAHHVRQGCGIPTHYICVLNTANLSPDHMQRLTFKLCHMYWNWPGTIRVPAPCKYAHKLAFLSGQILHHEPAIQLCGNLFFL
	11	76	myc-tagged Tdrd1 (natural protein) MMPRNNLEASTCKMAEPFNFEKKESKPPPQDPLRSPVAQHNHPTFRLKSPENGNTKNNFLLCEQNKQYLASQEDSSVVSSNPAVVNGEVGGSKGDRKPPPTGNPVSPLSLGNSSPPNQVKTKPSSNVTPEKSKKSHKLFENALSVNNPALFNSLGPPLRSTTCHRCGLFGSLRCSQCKQTYYCSTACQRRDWSSHSTICRPVQQSLNKLEDNKSPFETKAIEVKSEVDCPPGVTKEITAGAERVMFSDLRSLQLKKTMEIKGTVTEFKHPSNFYIQLYSSEVLENMNQLSTSLKETYANVVPEDGYLPVKGEVCVAKYTVDQTWNRAIVQAVDVLQRKAHVLYIDYGNEEMIPIDSVHPLSRGLDLFPPSAIKCCVSGVIPTAGEWSEGCVAAVKALLFEQFCSVKVMDILEEEVLTCAVDLVLQSSGKQLDHVLVEMGYGVKPGEQSSTEQSVDHSALEDVGRVTVESKIVTDRNALIPKVLTLNVGDEFCGVVAHIQTPEDFFCQQLQSGHKLAELQESLSEYCGHVIPRSDFYPTIGDVCCAQFSEDDQWYRASVLAYASEESVLVGYVDYGNFEILSLKRLCPIIPKLLDLPMQALNCVLAGVKPSLGIWTPEAVCVMKEMVQNRMVTVRVVGMLGTRALVELIDKSVAPHVSASKALIDSGFAIKEKDVADKGSSMHTASVPLAIEGPAEALEWTWVEFTVDETVDVVVCMMYSPGEFYCHFLKDDALEKLDDLNQSLADYCAQKPPNGFKAEIGRPCCAFFSGDGNWYRALVKEILPSGNVKVHFVDYGNVEEVTTDQLQAILPQFLLLPFQGMQCWLVDIQPPNKHWTKEATARFQACVVGLKLQARVVEITANGVGVELTDLSTPYPKIISDVLIREQLVLRCGSPQDSLMSRPANQHKQIDSHRVQASPSAEQWKTMELPVNKTIAANVLEIISPALFYAIPSEMSENQEKLCVLAAELLEHCNAQKGQPAYRPRTGDACCAKYTNDDFWYRAIVLETSESDVKVLYADYGNIETLPLSRVQPIPASHLELPFQIIRCSLEGPMELNGSCSQLVMELLRNAMLNQSVVLSVKAISKNVHAVSVEKCSENGMINIAENLVMCGLAENLTSKRKSASTKEIPHSRDCCCTELQKQIEKHEQILLFLLNNPTNQSKFTEMKKLLRS
